According to the Immune Epitope Database (IEDB):

Columns and labels:
HLA-A*02:02 = assay: IEDB peptide-MHC binding, purified MHC/competitive/radioactivity; filed as Kd, often an IC50 or EC50 that approximates it; ≥ and ≤ were set here for values at or beyond the usual limits of such assays
HLA-A*02:03 = assay: as above
HLA-A*02:06 = assay: as above
HLA-A*30:02 = assay: as above
HLA-A*02:01 [1] = assay: IEDB peptide-MHC binding, purified MHC/competitive/fluorescence; ≥ and ≤ were set here for values at or beyond the usual limits of such assays
HLA-A*02:01 [2] = assay: IEDB peptide-MHC binding, purified MHC/competitive/fluorescence; filed as Kd, often an IC50 or EC50 that approximates it; ≥ and ≤ were set here for values at or beyond the usual limits of such assays
HLA-B*15:01 = assay: IEDB peptide-MHC binding, purified MHC/direct/fluorescence; filed as Kd, often an IC50 or EC50 that approximates it; ≥ and ≤ were set here for values at or beyond the usual limits of such assays
HLA-A*03:01 = assay: as above
HLA-A*02:01 [3] = assay: as above
HLA-A*69:01 = assay: as above
HLA-B*58:01 = assay: as above
HLA-A*24:02 = assay: IEDB peptide-MHC binding, purified MHC/competitive/radioactivity; filed as Kd, often an IC50 or EC50 that approximates it; ≥ and ≤ were set here for values at or beyond the usual limits of such assays; conditions: source organism: Dengue virus 1 Brazil/97-11/1997
HLA-A*01:01 [4] = assay: IEDB peptide-MHC binding, purified MHC/direct/fluorescence; filed as Kd, often an IC50 or EC50 that approximates it; ≥ and ≤ were set here for values at or beyond the usual limits of such assays; conditions: source organism: Homo sapiens
HLA-A*11:01 = assay: as above; conditions: source organism: Homo sapiens
HLA-A*01:01 [5] = assay: IEDB peptide-MHC binding, purified MHC/competitive/radioactivity; filed as Kd, often an IC50 or EC50 that approximates it; ≥ and ≤ were set here for values at or beyond the usual limits of such assays; conditions: source organism: Dengue virus 2 Jamaica/1409/1983
HLA-B*40:01 = assay: IEDB peptide-MHC binding, purified MHC/direct/fluorescence; filed as Kd, often an IC50 or EC50 that approximates it; ≥ and ≤ were set here for values at or beyond the usual limits of such assays; conditions: source organism: Influenza A virus
[6] = source organism: Vaccinia virus WR
[7] = source organism: Zaire ebolavirus
[8] = source organism: SARS coronavirus Tor2
[9] = source organism: Yersinia pestis
[10] = source organism: Sudan ebolavirus
[11] = source organism: Marburg virus - Musoke, Kenya, 1980

Sequence	Kd (HLA-A*02:02; [6])	Kd (HLA-A*02:03; [6])	Kd (HLA-A*02:06; [6])	further results
EIDVSEVKTL	4950 nM	2240 nM	≥ 56000 nM	
RGDLPVWLAY				Kd (HLA-A*30:02; source organism: Dengue virus 2 Jamaica/1409/1983): 6.85 nM
TICLKNEGV	494 nM	120 nM	311 nM	
SIPISELSRL	252 nM	60.6 nM	78.2 nM	
DVDKLVCRD				IC50 (HLA-A*02:01 [1]; [7]): 51900 nM
IGKMLESTY				Kd (HLA-A*30:02; source organism: Dengue virus 4 Philippines/H241/1956): 18.5 nM
SLTSINVQA				IC50 (HLA-A*02:01 [1]; source organism: West Nile virus NY-99): 503 nM
VIDRLPSET	7080 nM	742 nM	3670 nM	
YIESKAKQL	144 nM	439 nM	2990 nM	
IMQVFFGYFA				Kd (HLA-A*02:02; [8]): 590 nM; Kd (HLA-A*02:03; [8]): 1570 nM; Kd (HLA-A*02:06; [8]): 51.1 nM
YVKNGTKGKL	5720 nM	7170 nM	≥ 28400 nM	
RVFKKIMSI	350 nM	0.18 nM	75.2 nM	
RQQLEDIFM	5730 nM	≥ 26900 nM	944 nM	
ALFGIKLPAL				Kd (HLA-A*02:01 [2]; source organism: Vaccinia virus Copenhagen): 0.3 nM
EADPTGHSY				Kd (HLA-B*15:01; source organism: Homo sapiens): 13500 nM
LPYTFMLRK				Kd (HLA-A*03:01; source organism: Escherichia coli): ≥ 20000 nM
TPRKKNYHF				Kd (HLA-A*02:01 [2]; source organism: Vibrio parahaemolyticus K5030): ≥ 20000 nM
LLAALFHDI				Kd (HLA-A*02:01 [3]; [9]): 85 nM; Kd (HLA-A*69:01; [9]): 1940 nM; Kd (HLA-B*15:01; [9]): 2480 nM; Kd (HLA-B*58:01; [9]): 1940 nM
KAFSMPLGV				IC50 (HLA-A*02:01 [1]; [10]): 9080 nM
GVLIAGIIL	5240 nM	1040 nM	951 nM	
RMIGGIGRFYI				Kd (HLA-A*02:01 [2]; source organism: Influenza A virus (A/swine/Italy/2/1979(H1N1))): 0.3 nM
FLYDRIAST				Kd (HLA-A*02:01 [3]; [11]): 5 nM; Kd (HLA-A*69:01; [11]): 1840 nM
STTGEWPLI	≥ 21100 nM	≥ 44500 nM	1240 nM	

Sequence	Kd (HLA-A*02:02; [6])	Kd (HLA-A*02:03; [6])	Kd (HLA-A*02:06; [6])	further results
KLSDGVAVL				IC50 (HLA-A*02:01 [1]; source organism: Homo sapiens): 6500 nM
FVRLDRPHT				IC50 (HLA-A*02:01 [1]; [10]): ≥ 101000 nM
ALVREGLRNV				IC50 (HLA-A*02:01 [1]; source organism: Mycobacterium tuberculosis): 130 nM
DLKPQNILL				Kd (HLA-A*02:01 [2]; source organism: Homo sapiens): 2000 nM
LAELLEMKYA	999 nM	1040 nM	2450 nM	
ITNTIAGVA				IC50 (HLA-A*02:01 [1]; [7]): 19900 nM
QLMYDIINSV	1.87 nM	0.139 nM	5.61 nM	
FMEEEIKAEM	1030 nM	3070 nM	865 nM	
IWGRKSWPL				Kd (HLA-A*24:02): 93.3 nM
SLVYGIRCV	2940 nM	3.83 nM	168 nM	
PTILATLNTL	374 nM	130 nM	771 nM	
VATDVPSAT				IC50 (HLA-A*02:01 [1]; [7]): ≥ 157000 nM
RLGADLDAV				IC50 (HLA-A*02:01 [1]; [6]): 7720 nM
WLVIGVAFL				Kd (HLA-A*02:02; [8]): 2.57 nM; Kd (HLA-A*02:03; [8]): 0.942 nM; Kd (HLA-A*02:06; [8]): 180 nM
KLFTIAMWLL				Kd (HLA-A*02:02; [8]): 8.53 nM; Kd (HLA-A*02:03; [8]): 709 nM; Kd (HLA-A*02:06; [8]): 262 nM
LVITYCLVT	6980 nM	3250 nM	8000 nM	
SSEQTFMYY				Kd (HLA-A*01:01 [4]): 42.1 nM; Kd (HLA-A*03:01; source organism: Homo sapiens): 10200 nM; Kd (HLA-A*11:01): 263 nM; Kd (HLA-A*69:01; source organism: Homo sapiens): 8340 nM; Kd (HLA-B*15:01; source organism: Homo sapiens): 1420 nM; Kd (HLA-B*58:01; source organism: Homo sapiens): 2480 nM
HTQTAGPWHL				Kd (HLA-A*01:01 [5]): ≥ 70400 nM
ILYYGANGST	341 nM	39.3 nM	1840 nM	
KNEHKSTWHY				Kd (HLA-A*30:02; source organism: Dengue virus 1 Brazil/97-11/1997): 450 nM
QQLCTMERT	≥ 77800 nM	4520 nM	929 nM	
VQHPELTGL				Kd (HLA-B*40:01): 136 nM
